Assay: protease stability score; higher = more stable; yeast display proteolysis, trypsin and chymotrypsin;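 also: log10 excess protease needed over predicted unfolded state with 0 meaning unfolded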

In order of rising protease stability score:
1. DDEVNHNFEEMLKARESGDPDRLKELFRDDVRMQVGDKQVTGREKLAEHLVENMKHSQRTIRITDIKAHNGRLEVRLKFTEEHNGRPKTAEADVKAVVHNGKFVSMHVDQKR  -0.523
2. DDHAADVMRKWFEALSSGNPDQAKKNLDPNAKVQIGDKTLHGREQVSQHVREQKEEIRFEIQSVDVRKEPGQVTVTMVYVSHFNGQPRRDTDTFFADVHGDKIKSVHIRVDEKQKQRERD  -0.495
3. DDHALERLRSLNHIEDDGNEEKVEEMLDPNATVEVGDKRYHGSHHYVDHVRQRKEKQRYSQQFKHFHREPGRIVVHATAKFQVNGKPFKYTLTQVARLSNGKFTDIKVDVPERLKEQRQQ  -0.258
4. DDEVQEVAEQWMRAFNTGDPDTFKDLLDKDVRVQYGDKRLSGKKTLANELQHQKEHQRFKVQHVDIKVTGNKAEINFTLVMDVNGKPVHYTVRANLDVHNGKVKEARFTMDPNTLSKMKR  -0.24
5. DDHAQRHLKELLKVINTGDEEEVEHMADPNARIQVGDKVFHGMRSYVDDIRRKKEELNVEYNVRRMDADGNRVEANVDVVFNHNGKPDRRTVDMKATIRNGKIKSMHWQENP  -0.227
6. DDHAMRKFHELLKAIETGDEKKITDLADKHARFEYGDTEVHGRHKYAKEATDRRREMRIEIKDMKTRVDENHVQINNNYQVQVNGEPHTYTVQVVVRMDNGRLKQVQIRVSEEIRDRNKT  -0.166
7. DDKDADHVQRALRNLERGDPEKADTMFDPNAHVRIGDKEIHGREQLNHWVERVHTEMRQRWDFKDVNEHENHVQIDVSITTEKNGQPRSKHVKLNARVNNGTVTSVEQQDDG  -0.164
8. DDHLRQVMEELKKAEDTGNPDRYVELADEDVEVHVGDTTLKGRTQHREEIKTQKDQSRLSINIQHVDVDGDKVRVQFVFENDHNGKPSTDRQQFVVRAHNGRVKRIENEERR  -0.114
9. DDHAVRMAKTYQKAIQHNDPDKMVDLVDPNAKIHIGDKDIQGREELRRWVKHRIDDINIIIERVSATDKGDKAIVTVDLVENENGRPHNVRFEVTFDFKNGRAQRVTVQESR  -0.088
10. DDHKAQRAVDIAKNWLTGNEEELQKQASEEVRFDYGDKTVHGMTEARTQAKRFHERMRADAKVHSFDVTGDKAVVNMVFEQEHNGRPTNRRYRVILDLHNGKVKEVQIDDDG  -0.069
11. DDHAERQARQVQTALKTGDPNQMERMFDENAEVVYGDKRIHGEHEASRVAKRIKEEMRVEYDVRRVTDNEDHVKFHAIIVIDENGKPRTKQLDLTMQQENGKVRLVSFRQDR  -0.048
12. DDHNIQRLKQFLDDWERGDPDKLKDLVDPNVEFRIGEREVHGMDHWATQLTEERRDQRFQLKDMRVQERPGRVEVRLDYEQDHNGKPERQIVKFVAQATNGELKWVNWTRDS  -0.017
13. DDEVLDQVKEFLKAVKTGNDQQIKRLADKDVHFKIGDDVIDGREKVTKEWKQQHREMSVDYKKVKLQKRPNRAIVTYDVHYRHNGRPQSLKVQVRFTFDNGKLQSMSVTNSQ  -0.006
14. DDHDRQKLSEWYKNYESGDPDKLVDMADPNARFQYGDKHVRGREQIHRQWRKELTEQRFTVVKMSASDHNGVIDMKFTNEVEHNGRPDRRKFSFTFRVRNGQAQEFDLQTTK  0.014
15. DDHRAKQAVKAWTDNNPDNLRELFDKNVRVEIGEFTLHGREDAQSMVQRLHSRADHVEYKDIKVSNGRINIDVVYMVDGHRVRATIHLTIENGRLKSMEVRFTSEEDQKKAKRAFE  0.09
16. DDHEKANKVVSKLVEANRTGDEKKFVDMADPNVQLNIGDQRVHGREQAEKFARDFHTRFDHLDVKIKDVDVQGEKLELDVKMKVHFDGRTHEINMRLELQRNNGRVKLVRLHIP  0.097
17. DDEVFRRFQEALDIVKKGDPKKFEEMADPNARVKVGDKQLHGRETIAKDIADHMKEMKIEWRVKKLTTNEDHVNVTERWQQKHDGRPEDRERRARVRARGDKLKNHEVETDG  0.118
18. DDHAVSFVEEMLRIEKTGNHQQLENKADPNAEAEYGDKTYHGMEDFARELVRQLREWRLDYKSIDVQAHNGRAEVDVDVLVDIDGEPVRFRVTIVFQQHNGRLKNQSMRMSTDQLRKQQR  0.121
19. DDEVAEELRDIVHNGNWEEMSRNADKNAKVTIGDKQVHGRESAVRVLRIWQKQFDHIQIDRIDKHPGRVRWNARANVNGREVDYHARIHVKNGKVTDVTMEFTDPSQKRQFNRDLN  0.205
20. DDKAADDARRALEQLNTGNEERAATYMDPNVSVRIGDKSVHGREEIQRSEERKRRRLEVQYKDYRVSVENGEFTASYDYTNHHNGRPQRVKVEVHISADNGKIKSVQQHEDK  0.213
21. DDHNVRLAKKFREAYETGDEETVKSMADPNAHYHVGDKRITGRERQVRKMTRERRDMRVQVESIRYSNRNGRVDVKIVEVRNDNGHPKRMRIVLHVNFQNGKAKEFQIEDQE  0.226
22. DDHLRREAKKMVKNYVKGDPDKVMEYVDPNATVNVGDKNIRGRESVREWVKTQKDQMRIQLTSMRVDASNGRVKISLDFRLNDNGKPDRVTVDIKLNMRNGRVQHVNIQTHK  0.279
23. DDHEEASELIRDLNEAWKEGDPDRASKNFDPNARIEVGDRTFRGQEQVKRMADELKEKYDEFTVDIKRLSLHNGSITVNARVVYHNNGRRHDRTYVVILHKHNGRIKIKNMHEQ  0.331
24. DDHKLAEDIIQEFHEAMERGDPDQIQKLADKDVTINYGDKRIRGRETATRFWREVMDRIDHVEVTIRELRVKGDKIQFVVLINQNHNGQTTNRHVEASVEVHGDKYRNKSFQFQ  0.35
25. DDHNARSALTIAFTAIRQGDEQKIRELMDKHVDVHVGDEVVHGRDQVATRLRKLKERVDHIQVKSMSVQGDTLDLNIIFRINGKDLEIKFDIRFRNGRVESMTVRVTDEKKYKDIHQ  0.475
26. DDHVNREINRLMEKNDEQKFVDQADENASMDVGNKRYHGRDAAIKAARAWRKAADHVRIKRFEYSNGKIIIVVVVQFNGHRYDVTIDIVHHNGKVKEFVVRFTDPEQERDFRDWLG  0.509
27. DDHDAKRAAKHVENGDPEQITNLFDEDARVHIGDFRIHGREDAKKWADHYRDQVDHLEYEDYRISGDTVVIVFQINVNGKRVRLRLEFRVHNGRIKEMTVEFTSEDDEKRVLKIMS  0.531
28. DDEVKKEAEKMVEIIMHGDPDKVRNQFDPNAKMQIGDKELHGQEQLRDHLKRMNDHLRIDLKSVSARLDGNHIHLDVLFVKEHNGKPEEQRVEFVADIHNGKIVSASVEHVD  0.54
29. DDHANRVVEDVMQAWQDNDEDRLKELLDPNVKVEYGDRRVEGRDEAVREWVEQFRQSTIEYEIKSVNNSGDKVQINMDMRFESNGHPDENRVRLEASAHNGKIRELNFHTDQ  0.589
30. DDHVLREVMKSWKDNDWKTLQDQVDPNARMKVGDNKVSGREQIEDLLQHLQDRIDHVEIKSMQHQGDKANFRFQFVVNGQRVDVVARVKAHNGKIQEWQVEVRNDELKEQLERAQK  0.628
31. DDHAIRLLHEMIKAERTNDPDKLKEQMDPNAKIKYGDKTVHGRNDAVRYLEETVEHARVSIQVKSIKDQGDQAIADATITVNINGRPQQFKITIVAKFHNGRIKEVEIRVSEEQERQMES  0.785
32. DDEVLDDLVRLIKDNDWEQMANNADKDVKIQIGDKTWHGREQVEEVMRRMQETIDHLDIRSVTRHNGQVKVENRIEVNGQTIIYTVVFQAHNGRLKSMRVQATSHHAEDVMRQVIN  0.792
33. DDEVVKEVNNALKTNDFKSMVDLADKNARIRVGNKTYRGREEVERFQTILHQRADHVQFRKIHVEGDTAVVDMVVVVNGHKLKYTVKIRVHNGKITSLRMQFTDESDERVMSKVLG  0.8
34. DDHNRAENFLKEVMRAMKNNDPQTLKELADPNVTVEVGDKEIHGQEEFHKWAETLNHNVDSLDIQFKEIRLRPGRAEAIVLITEDHNGRKDRKELNMVARVKGDDIHVVSMHQK  0.828
35. DDHREEQMNRVAETGNFKHLASQLDKDATAFYGDKTVEGREHIQENLNRLHSHIDHIEYKKVEVKNGKVDVDFTAVINGTTFRAQMRLVVHNGRIKTISMRARDEKDKKLIHEWLS  0.83
36. DDHEQRSLQELVKKNDEEKFAEQADKDVKVDVGDSRIHGREEWRKFVKRLKDRADHIEIHSVKADGEKLEVHREMTVDGRRVVYYVRYEVHNGRIKSISLQARTEDDQRKLQHVLS  0.919
37. DDEVKERVTQLLTAMLTNNPDKVQELIDPNAKVHVGDKRVQGEDDIKRVVEEENRQWRMRIKSVSVHVQGEKVRLDIEFVVHVNGEPQNDRVIMELTVHNGRVTDLQLQVDPRKLQERRN  0.966
38. DDHDRLRKFFETLLKNYQHNNEEHATKMADKDARFDVGDKTVNGNKQNAKEMAERVRESDHYHAKIQSYRVEGDKAHFQFVASVVHNGRERHFKVQMELKLHNGSLKIVRLRNS  0.966
39. DDHKVEHVNRLFETNNPDKLAKNVDPNADNQVGDKRYHGRQKIHTFLKNMYTRVDHVDIHRISVNGNRLQIDATYDIDGRRFYADMRFRLHNGRIKEVRVRFTNEEQDKVVKEAVK  0.985
40. DDHKNRERAKEIAKQFQHNNPEDLRKMFDKDARLDLGSQQYHGREDVNRALSHLSKRIDHYEIKDIKVKGDNIDIQAVVTVNGRRYSLKIILRFSNGKAKEVHFHVS  0.997
41. DDHNVRVMREIQKAIEKNDEKRFKELVDPNVRVRIGDNLIHGRDNVAKELKREMDHMRKNIRSMSIDDEGDHVVINIEYEQNENGHPDTNRVQVSAELHNGKLKEMHISSRQ  1.02
42. DDEVKKFAEKFVTNLENNNPQELKSMADPNAKFEVGNKSVHGMDEYVRQVRERNEHMRFDVKRVQIRVNGNQIIINVHLHVNVNGRPVDLSYEVDINFDNGKIKYVRLDVDEDQEKRMTG  1.1
43. DDHAVRLLNDIVRALNSGDEQKVADNADPNVRIEYGDSVITGRERLMEEIQKRRKELRFEVQVDRVREKPNHVVADVQLHFNVNGQPRNMKVEVRATWTNGKLKHMHIKMDEEQVRQLKR  1.1
44. DDHRAHQMAEFVIDAIRTGDPDKFVNQADENVRVVIGDKQVQGHEEAREALKSLKDQADHVSLTDFRVHGDKVEVVFEARVNGVDLVMKVYARIHNGHLVMMSIDVTDPRKQKKADS  1.11
45. DDEVRKVVHEWWKALRTGDPDLAKKLADPNAEFQIGDKRVHGMKDFARKLTEEHKESEIEINIRHIDAQGDNVNVHFEFQIDRNGRPQTNTQTVHLRVNNGKITRFEMRTQS  1.16
46. DDHETAKQIMETWKQIVEDGDEHQAQRMADPNVHANIGDHTVHGKEEFKKMLRTWRDRVDRIEVTFRHIEVTGNKLIVVVDVRLDVNGKEIHVHMVLNAQKQGDEAKVETVVVE  1.24
47. DDHALRLVEEFLRAMRTGDEDKLKELVDPNARVTVGDHVWHGMESAAREWKRLKDEMRIKIDLQHVDDHGNSANAKASLAFRVNGKPQQNHMKMEVIFENGRIQSIVLRFSNEVEHNIKR  1.28
48. DDHEVAKQNMRDLLTILNTGDPDKAEEMADKDVKIDVGDKRYHGQTKMREWIEELRKRYDHIHADVKSVEVHNGQVRADIEMVFNHNGREETVKVDVKAELDGDKVKIENLVLR  1.3
49. DDEVAKTIVKNWKTGDPDRLNEMFDPNARIRIGNQDVHGHEEVKKMLHKFFTAIDSIDIKRVSVHNGRIDIDVRAHFNGRSFRFVLHIVVEDGRVKHMEMKVTDPDSQRELEKHQK  1.35
50. DDHSSARKFADEFREMMKTGDSTKADELFDPNVRVEVGDKRYHGREQAVDWIRHLVDRYDHIEIRIDHITVRGDRISIVFTVHYEKNGETTYDRYVMVAVDRNGRAQIKMLRKG  2.51
